The Human Domainome abundance scans (Beltran et al. 2025)
± gives the uncertainty stated by the source.

B1: Intersectin-1, residues 1156 to 1213; numbered along this chain, Q15811 (parent)
chain: AVCQVIGMYDYTAQNDDELAFNKGQIINVLNKEDPDWWKGEVNGQVGLFPSNYVKLTT

Variants of: B1
Test: abundance fitness (aPCA) (normalised: wild type 0, dead -1); higher = more abundant; growth selection in yeast, the domain comes from the species named
Conditions: Homo sapiens

| Variant | abundance fitness |
| --- | --- |
| AVCQVIGMYDYTAQNDDELAFNKGQIINVLNKEDPDWWKGEVNGQVGLFPSNYVKLLT [T57L] | -0.116 ± 0.11 |
| AVCQVIGMYDYTAQNDDELAFNKGQIINVLNKEDPDWWKGEVNGQVGLFPSNYVKLFT [T57F] | 0.086 ± 0.15 |
| AVCQVIGMYDYTAQNDDELAFNKGQIINVLNKEDPDWWKGEVNGQVGLFPSNYVKLHT [T57H] | -0.003 ± 0.14 |
| AVCQVIGMYDYTAQNDDELAFNKGQIINVLNKEDPDWWKGEVNGQVGLFPSNYVKLVT [T57V] | -0.06 ± 0.089 |
| AVCQVIGMYDYTAQNDDELAFNKGQIINVLNKEDPDWWKGEVNGQVGLFPSNYVKLQT [T57Q] | 0.028 ± 0.15 |
| AVCQVIGMYDYTAQNDDELAFNKGQIINVLNKEDPDWWKGEVNGQVGLFPSNYVKLKT [T57K] | -0.024 ± 0.21 |
| AVCQVIGMYDYTAQNDDELAFNKGQIINVLNKEDPDWWKGEVNGQVGLFPSNYVKLRT [T57R] | -0.131 ± 0.078 |
| AVCQVIGMYDYTAQNDDELAFNKGQIINVLNKEDPDWWKGEVNGQVGLFPSNYVKLAT [T57A] | -0.059 ± 0.083 |
| AVCQVIGMYDYTAQNDDELAFNKGQIINVLNKEDPDWWKGEVNGQVGLFPSNYVKLYT [T57Y] | -0.063 ± 0.15 |
| AVCQVIGMYDYTAQNDDELAFNKGQIINVLNKEDPDWWKGEVNGQVGLFPSNYVKLST [T57S] | -0.174 ± 0.09 |
| AVCQVIGMYDYTAQNDDELAFNKGQIINVLNKEDPDWWKGEVNGQVGLFPSNYVKLET [T57E] | -0.519 ± 0.16 |
| AVCQVIGMYDYTAQNDDELAFNKGQIINVLNKEDPDWWKGEVNGQVGLFPSNYVKLCT [T57C] | -0.115 ± 0.12 |
| AVCQVIGMYDYTAQNDDELAFNKGQIINVLNKEDPDWWKGEVNGQVGLFPSNYVKLDT [T57D] | -0.055 ± 0.15 |
| AVCQVIGMYDYTAQNDDELAFNKGQIINVLNKEDPDWWKGEVNGQVGLFPSNYVKLWT [T57W] | -0.167 ± 0.12 |
| AVCQVIGMYDYTAQNDDELAFNKGQIINVLNKEDPDWWKGEVNGQVGLFPSNYVKLMT [T57M] | -0.009 ± 0.15 |
| AVCQVIGMYDYTAQNDDELAFNKGQIINVLNKEDPDWWKGEVNGQVGLFPSNYVKLIT [T57I] | -0.13 ± 0.14 |
| AVCQVIGMYDYTAQNDDELAFNKGQIINVLNKEDPDWWKGEVNGQVGLFPSNYVKLNT [T57N] | -0.028 ± 0.17 |
| AVCQVIGMYDYTAQNDDELAFNKGQIINVLNKEDPDWWKGEVNGQVGLFPSNYVFLTT [K55F] | -0.614 ± 0.17 |
| AVCQVIGMYDYTAQNDDELAFNKGQIINVLNKEDPDWWKGEVNGQVGLFPSNYVNLTT [K55N] | -0.456 ± 0.17 |
| AVCQVIGMYDYTAQNDDELAFNKGQIINVLNKEDPDWWKGEVNGQVGLFPSNYVALTT [K55A] | -0.146 ± 0.1 |
| AVCQVIGMYDYTAQNDDELAFNKGQIINVLNKEDPDWWKGEVNGQVGLFPSNYVHLTT [K55H] | -0.431 ± 0.18 |
| AVCQVIGMYDYTAQNDDELAFNKGQIINVLNKEDPDWWKGEVNGQVGLFPSNYVSLTT [K55S] | -0.004 ± 0.084 |
| AVCQVIGMYDYTAQNDDELAFNKGQIINVLNKEDPDWWKGEVNGQVGLFPSNYVRLTT [K55R] | 0.067 ± 0.084 |

| Variant | abundance fitness |
| --- | --- |
| AVCQVIGMYDYTAQNDDELAFNKGQIINVLNKEDPDWWKGEVNGQVGLFPSNYVYLTT [K55Y] | -0.427 ± 0.15 |
| AVCQVIGMYDYTAQNDDELAFNKGQIINVLNKEDPDWWKGEVNGQVGLFPSNYVDLTT [K55D] | -0.513 ± 0.15 |
| AVCQVIGMYDYTAQNDDELAFNKGQIINVLNKEDPDWWKGEVNGQVGLFPSNYVQLTT [K55Q] | -0.177 ± 0.16 |
| AVCQVIGMYDYTAQNDDELAFNKGQIINVLNKEDPDWWKGEVNGQVGLFPSNYVLLTT [K55L] | -0.318 ± 0.089 |
| AVCQVIGMYDYTAQNDDELAFNKGQIINVLNKEDPDWWKGEVNGQVGLFPSNYVILTT [K55I] | -0.325 ± 0.21 |
| AVCQVIGMYDYTAQNDDELAFNKGQIINVLNKEDPDWWKGEVNGQVGLFPSNYVPLTT [K55P] | -0.797 ± 0.16 |
| AVCQVIGMYDYTAQNDDELAFNKGQIINVLNKEDPDWWKGEVNGQVGLFPSNYVCLTT [K55C] | -0.098 ± 0.15 |
| AVCQVIGMYDYTAQNDDELAFNKGQIINVLNKEDPDWWKGEVNGQVGLFPSNYVMLTT [K55M] | 0.024 ± 0.16 |
| AVCQVIGMYDYTAQNDDELAFNKGQIINVLNKEDPDWWKGEVNGQVGLFPSNYVTLTT [K55T] | -0.225 ± 0.11 |
| AVCQVIGMYDYTAQNDDELAFNKGQIINVLNKEDPDWWKGEVNGQVGLFPSNYVWLTT [K55W] | -0.678 ± 0.17 |
| AVCQVIGMYDYTAQNDDELAFNKGQIINVLNKEDPDWWKGEVNGQVGLFPSNTVKLTT [Y53T] | -0.11 ± 0.12 |
| AVCQVIGMYDYTAQNDDELAFNKGQIINVLNKEDPDWWKGEVNGQVGLFPSNMVKLTT [Y53M] | 0.12 ± 0.15 |
| AVCQVIGMYDYTAQNDDELAFNKGQIINVLNKEDPDWWKGEVNGQVGLFPSNHVKLTT [Y53H] | -0.26 ± 0.2 |
| AVCQVIGMYDYTAQNDDELAFNKGQIINVLNKEDPDWWKGEVNGQVGLFPSNEVKLTT [Y53E] | -0.711 ± 0.2 |
| AVCQVIGMYDYTAQNDDELAFNKGQIINVLNKEDPDWWKGEVNGQVGLFPSNWVKLTT [Y53W] | -0.255 ± 0.11 |
| AVCQVIGMYDYTAQNDDELAFNKGQIINVLNKEDPDWWKGEVNGQVGLFPSNIVKLTT [Y53I] | -0.239 ± 0.28 |
| AVCQVIGMYDYTAQNDDELAFNKGQIINVLNKEDPDWWKGEVNGQVGLFPSNVVKLTT [Y53V] | -0.343 ± 0.089 |
| AVCQVIGMYDYTAQNDDELAFNKGQIINVLNKEDPDWWKGEVNGQVGLFPSNRVKLTT [Y53R] | -0.068 ± 0.078 |
| AVCQVIGMYDYTAQNDDELAFNKGQIINVLNKEDPDWWKGEVNGQVGLFPSNGVKLTT [Y53G] | -0.601 ± 0.086 |
| AVCQVIGMYDYTAQNDDELAFNKGQIINVLNKEDPDWWKGEVNGQVGLFPSNQVKLTT [Y53Q] | -0.224 ± 0.14 |
| AVCQVIGMYDYTAQNDDELAFNKGQIINVLNKEDPDWWKGEVNGQVGLFPSNSVKLTT [Y53S] | -0.426 ± 0.1 |
| AVCQVIGMYDYTAQNDDELAFNKGQIINVLNKEDPDWWKGEVNGQVGLFPSNKVKLTT [Y53K] | 0.085 ± 0.14 |
